Reference: article PMC4333399

Key:
PCG2-DBD 12-138 = PCG2-DBD 12-138 (Magnaporthe oryzae, UniProt G4NA99 12-138); assay: SPR; SPR (Biacore T100, steady state): 20 mM Tris pH 8.0, 150 mM NaCl, 0.005% Tween20; temperature not stated; conditions: protein: recombinant; tags: N-terminal 6xHis; chain copies: 2; label: 5'-biotin on strand S2; blunt
PCG2-DBD 1-128 = PCG2-DBD 1-128 (Magnaporthe oryzae, UniProt G4NA99 1-128); assay: as above; conditions: protein: recombinant; tags: N-terminal 6xHis; label: 5'-biotin on strand S2; blunt
PCG2-DBD 12-128 = PCG2-DBD 12-128 (Magnaporthe oryzae, UniProt G4NA99 12-128); assay: as above; conditions: protein: recombinant; tags: N-terminal 6xHis; label: 5'-biotin on strand S2; blunt
PCG2-DBD WT [1] = biological target: T1, PCG2-DBD WT (Magnaporthe oryzae, UniProt G4NA99 1-138); assay: as above; conditions: protein: recombinant; tags: N-terminal 6xHis (pHAT2); chain copies: 2; label: 5'-biotin on strand S2; blunt
PCG2-DBD WT [2] = biological target: T1, PCG2-DBD WT; assay: crystal structure; two PCG2-DBD monomers per duplex; SPR (Biacore T100, steady state): 20 mM Tris pH 8.0, 150 mM NaCl, 0.005% Tween20; temperature not stated; conditions: protein: recombinant; tags: N-terminal 6xHis (pHAT2); chain copies: 2; blunt

Binder | Kd (PCG2-DBD 12-138) | Kd (PCG2-DBD 1-128) | Kd (PCG2-DBD 12-128) | Kd (PCG2-DBD WT [1]) | binding result (PCG2-DBD WT [2])
MCB1 DNA (SPR) (dsDNA) DNA 1: CTTACGCGTCATTG DNA 2: CAATGACGCGTAAG | 1.37 ± 0.45 µM | 29.8 ± 6.3 µM | 48.3 ± 5.2 µM | 0.81 ± 0.03 µM | –
MCB1 DNA (crystal) (dsDNA) DNA 1: CAATGACGCGTAAG DNA 2: CTTACGCGTCATTG | – | – | – | – | binds
